Measurements taken from US11225653B2, “Methods and compounds for reducing threonyl-tRNA synthetase activity” (University of Vermont and State Agricultural College, priority 2012, dated 2022).

B1: E. coli ThrRS: bacterial (E. coli) threonyl-tRNA synthetase (protein, UniProt P0A8M3 1-642, looked up)
Threonine--tRNA ligase: MPVITLPDGSQRHYDHAVSPMDVALDIGPGLAKACIAGRVNGELVDACDLIENDAQLSIITAKDEEGLEIIRHSCAHLLGHAIKQLWPHTKMAIGPVIDNGFYYDVDLDRTLTQEDVEALEKRMHELAEKNYDVIKKKVSWHEARETFANRGESYKVSILDENIAHDDKPGLYFHEEYVDMCRGPHVPNMRFCHHFKLMKTAGAYWRGDSNNKMLQRIYGTAWADKKALNAYLQRLEEAAKRDHRKIGKQLDLYHMQEEAPGMVFWHNDGWTIFRELEVFVRSKLKEYQYQEVKGPFMMDRVLWEKTGHWDNYKDAMFTTSSENREYCIKPMNCPGHVQIFNQGLKSYRDLPLRMAEFGSCHRNEPSGSLHGLMRVRGFTQDDAHIFCTEEQIRDEVNGCIRLVYDMYSTFGFEKIVVKLSTRPEKRIGSDEMWDRAEADLAVALEENNIPFEYQLGEGAFYGPKIEFTLYDCLDRAWQCGTVQLDFSLPSRLSASYVGEDNERKVPVMIHRAILGSMERFIGILTEEFAGFFPTWLAPVQVVIMNITDSQSEYVNELTQKLSNAGIRVKADLRNEKIGFKIREHTLRRVPYMLVCGDKEVESGKVAVRTRRGKDLGSMDVNEVIEKLQQEIRSRSLKQLEE
B2: L567V TARS: BC194-resistant (borrelidin-resistant) L567V mutant of human TARS (protein, UniProt P26639 1-723, looked up, variant L567V)
Threonine--tRNA ligase 1, …: MFEEKASSPSGKMGGEEKPIGAGEEKQKEGGKKKNKEGSGDGGRAELNPWPEYIYTRLEMYNILKAEHDSILAEKAEKDSKPIKVTLPDGKQVDAESWKTTPYQIACGISQGLADNTVIAKVNNVVWDLDRPLEEDCTLELLKFEDEEAQAVYWHSSAHIMGEAMERVYGGCLCYGPPIENGFYYDMYLEEGGVSSNDFSSLEALCKKIIKEKQAFERLEVKKETLLAMFKYNKFKCRILNEKVNTPTTTVYRCGPLIDLCRGPHVRHTGKIKALKIHKNSSTYWEGKADMETLQRIYGISFPDPKMLKEWEKFQEEAKNRDHRKIGRDQELYFFHELSPGSCFFLPKGAYIYNALIEFIRSEYRKRGFQEVVTPNIFNSRLWMTSGHWQHYSENMFSFEVEKELFALKPMNCPGHCLMFDHRPRSWRELPLRLADFGVLHRNELSGALTGLTRVRRFQQDDAHIFCAMEQIEDEIKGCLDFLRTVYSVFGFSFKLNLSTRPEKFLGDIEVWDQAEKQLENSLNEFGEKWELNSGDGAFYGPKIDIQIKDAIGRYHQCATIQLDFQVPIRFNLTYVSHDGDDKKRPVIVHRAILGSVERMIAILTENYGGKWPFWLSPRQVMVVPVGPTCDEYAQKVRQQFHDAKFMADIDLDPGCTLNKKIRNAQLAQYNFILVVGEKEKISGTVNIRTRDNKVHGERTISETIERLQQLKEFRSKQAEEEF

Experiments:
human TARS [1] = assay: Ap4A formation assay; format: biochemical; conditions: 5 μM enzyme, 2 mM threonine, 2 mM ATP
Protocol: TARS purification and active site determination were performed as previously described (Williams, Mirando et al., 2013). TARS non-canonical catalytic activities were characterized using modifications from published methods (Guo, Chong et al. 2009). For Ap4A reactions 5 μM of wildtype TARS or R442A TARS were incubated for 10 minutes on ice with 2 mM threonine, and 10 μM BC194 or borrelidin as indicated in FIG. 17C. Reactions were initiated using 2 mM ATP with trace amounts of [α-^32P]-ATP as label. At specific time points aliquots were quenched in 3 volumes of 0.1% SDS, 400 mM sodium acetate and resolved on polyethyleneimine-cellulose plates by thin-layer chromatography (TLC) in 3 M NH4 (SO4)2 and 2% EDTA. Radioactive counts were identified by phosphorimaging and products quantified as fractions of total ATP added. The quantitation of product was normalized to take into account the fact that each Ap4A molecule has two equivalents of radioactive phosphorus.

human TARS [2] = assay: GTPase assay (GTP hydrolysis); format: biochemical; conditions: 2 mM GTP
human TARS [3] = assay: Ap4G formation assay; format: biochemical; conditions: 2 mM ATP, 2 mM threonine, 2 mM GTP
[4] = test system: chorioallantoic membrane (CAM); assay: Chick chorioallantoic membrane (CAM) assay; format: in vivo, chicken
Protocol: Chick Chorioallantoic Membrane Assay-Fertilized chicken eggs (Sunrise Farms, Catskill, N.Y.) day 1-2 post-laying were incubated in a humidified incubator at 37° C. for 72 h. Cleaned eggs were cracked and plated in a sterile 10 cm^2 tissue culture-treated dish and incubated at 37° C. for another 7 days. On developmental day 10, 1 mm^3 sterile gelatin sponge pieces (Surgifoam®; Johnson & Johnson Wound Management, Somerville, N.J.) were placed within the outer one-third of the membrane between large vessels. 40 μg/ml human bFGF and 2 μg/mL human VEGF were used as pro-angiogenic control compounds; 100 μg/mL retinoic acid (Sigma-Aldrich, St. Louis, Mo.) diluted in phosphate-buffered saline (PBS) was used as an angiostatic control. All compounds were applied in 10 μl to the CAM every 24 h for 72 h. Images were taken using a Leica MZ6 stereomicroscope every 24 h. Compounds were scored according to a modified version of Intensity Scoring as previously described (Ribatti, Nico et al. 2006). Briefly, each experimental condition was given a blinded score from 0-5 based on the change in the extent of vessel convergence and formation in proximity to the sponge from day 0 to day 3. Total score is averaged individual experimental condition scores from at least 15 replicates.
Fertilized chicken embryos were cultured ex-ova and, starting at developmental day 10, agents were applied daily to gelfoam sponges on the CAM. Images were recorded daily over 72 h and scored blindly according to a modified version Intensity Scoring as previously described (Ribatti, Nico et al. 2006). Additional details regarding methods are provided in the Methods and Materials section of Example 1.

human TARS [5] = assay: Steady state aminoacylation assay; format: biochemical; conditions: purified protein
Protocol: Steady State Aminoacylation Assay-The aminoacylation activities of the TARS constructs were determined using modifications to established procedures ([…] et al 2008). Briefly, reaction mixtures consisted of 20 mM Tris-HCl pH 8.0, 100 mM KCl, 10 mM MgCl2, 1 mM dithiothreitol, 2 mM ATP, 2.5 U pyrophosphatase (Roche), 80 μM threonine, 20 μM [14C]-threonine, and 5 μM of E. coli or human […]. Reactions were initiated with the addition of 0.25-0.75 μM TARS and run at 37° C. Aliquots were taken at varying time points and spotted onto Whatmann 3MM paper filters pre-soaked in 5% trichloroacetic acid (TCA). Upon completion, the filters were washed 3 times in excess TCA, once in 95% ethanol, and dried under a heating lamp. The formation of […] was detected by scintillation counter and the activity determined by linear regression of […] formed per active site per unit time.

| GTP hydrolysis (human TARS [2]) | Molecule | production of Ap4A (human TARS [1]) | rate of Ap4G formation (human TARS [3]) | sensitivity of protein-stimulated CAM vessel formation to BC194 ([4]; protein applied together with BC194) | vessel formation / vascularization on the CAM after applied protein ([4]; purified protein applied daily to sponge, scored over 72 h) | aminoacylation activity of the protein (human TARS [5]) |
| --- | --- | --- | --- | --- | --- | --- |
| not | B1 | 0.5612 Ap4A/active site/min | 0.5612 Ap4G/active site/min |  |  |  |
|  | B2 |  |  | not inhibited by application of BC194 | stimulated vessel formation | activity is not compromised |
